# From article PMC2116304 (The Journal of Cell Biology, 1990)
# Several values for one entry are separate records, joined by “and”; a condition that tells them apart may be missing. Equal values may be shown once.
# Experiments:
# [1] = molecular target: K3 proteolytic fragment of the invariant chain (18,000 D, lumenal) (human); experiment: cross-linking
# [2] = molecular target: the molecule itself; experiment: SEC
# [3] = molecular target: the molecule itself; experiment: cross-linking
# [4] = molecular target: the molecule itself; experiment: non-reducing SDS-PAGE without cross-linker
# Chain of K3 proteolytic fragment of the invariant chain (18,000 D, lumenal) (domain or fragment) (P04233 73-296, change not shown): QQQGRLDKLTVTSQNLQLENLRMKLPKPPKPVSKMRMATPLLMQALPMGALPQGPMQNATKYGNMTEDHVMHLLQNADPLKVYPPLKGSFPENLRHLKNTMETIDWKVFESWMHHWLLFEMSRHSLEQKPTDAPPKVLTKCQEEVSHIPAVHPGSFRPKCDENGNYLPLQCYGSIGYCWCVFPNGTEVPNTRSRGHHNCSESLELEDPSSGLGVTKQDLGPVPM
molecule,measurement,setting,value
"K3 proteolytic fragment of the invariant chain (18,000 D, lumenal) (domain or fragment)",stoichiometry N,[1],3
"excess (class II-unassociated) invariant chain from Swei B-LCL (natural protein, human, UniProt P04233-2 1-232, looked up, [35S]methionine-labelled; N-linked glycans, endo H-sensitive) MHRRRSRSCREDQKPVMDDQRDLISNNEQLPMLGRRPGAPESKCSRGALYTGFSILVTLLLAGQATTAYFLYQQQGRLDKLTVTSQNLQLENLRMKLPKPPKPVSKMRMATPLLMQALPMGALPQGPMQNATKYGNMTEDHVMHLLQNADPLKVYPPLKGSFPENLRHLKNTMETIDWKVFESWMHHWLLFEMSRHSLEQKPTDAPPKESLELEDPSSGLGVTKQDLGPVPM",stoichiometry N,[2],3
"invariant chain (from the class II-negative hybrid cell line 174xCEM.T2) (natural protein, human, UniProt P04233-2 1-232, looked up, N-linked glycans, endo H-sensitive; [35S]methionine-labelled in the affinity-purified samples) MHRRRSRSCREDQKPVMDDQRDLISNNEQLPMLGRRPGAPESKCSRGALYTGFSILVTLLLAGQATTAYFLYQQQGRLDKLTVTSQNLQLENLRMKLPKPPKPVSKMRMATPLLMQALPMGALPQGPMQNATKYGNMTEDHVMHLLQNADPLKVYPPLKGSFPENLRHLKNTMETIDWKVFESWMHHWLLFEMSRHSLEQKPTDAPPKESLELEDPSSGLGVTKQDLGPVPM",stoichiometry N,[3],3 and 4 and 6
same,stoichiometry N,[4],2
